B1: bispecific HER3/HER2 antibody DIBxPERT (bispecific antibody, human IgG1, kappa)
heavy 1: not shown
light 1: DIQMTQSPSSLSASVGDRVTITCKASQDVSIGVAWYQQKPGKAPKLLIYSASYRYTGVPSRFSGSGSGTDFTLTISSLQPEDFATYYCQQYYIYPYTFGQGTKVEIKSSASTKGPSVFPLAPSSKSTSGGTAALGCLVKDYFPEPVTVSWNSGALTSGVHTFPAVLQSSGLYSLSSVVTVPSSSLGTQTYICNVNHKPSNTKVDKKVEPKSC
heavy 2: not shown
light 2: QIVLTQSPAIMSASPGERVTITCSASSSVSYMHWFQQKPGTSPKLLIYSTSNLASGVPARFSGSGSGTSYSLTISRMEAEDAATYYCQQRSSYPFTFGSGTKLEIKRTVAAPSVFIFPPSDEQLKSGTASVVCLLNNFYPREAKVQWKVDNALQSGNSQESVTEQDSKDSTYSLSSTLTLSKADYEKHKVYACEVTHQGLSSPVTKSFNRGEC
notes: also called DIBxPERT CrossMab
B2: M-15-02 (antibody, V domains shown)
VH: QVQLQQSGAELAKPGASVKMSCKTSGYTLTDYWIHWVKQRPGQGLEWIGYINPYTGYTESNQKFKDKATLTADKSSNTAYIQLSSLTSEDSAVYYCARPYYYGDYWGQGTTLTVSS
VL: QIVLTQSPAIMSASPGERVTITCSASSSVSYMHWFQQKPGTSPKLLIYSTSNLASGVPARFSGSGSGTSYSLTISRMEAEDAATYYCQQRSSYPFTFGSGTKLEIK
notes: murine hybridoma clone
B3: DIB-MoAb (monovalent antibody based on M-05-74) (antibody, V domains shown)
VH: QVQLQQSGAELAKPGASVKMSCKTSGYTLTDYWIHWVKQRPGQGLEWIGYINPYTGYTESNQKFKDKATLTADKSSNTAYIQLSSLTSEDSAVYYCARPYYYGDYWGQGTTLTVSS
VL: QIVLTQSPAIMSASPGERVTITCSASSSVSYMHWFQQKPGTSPKLLIYSTSNLASGVPARFSGSGSGTSYSLTISRMEAEDAATYYCQQRSSYPFTFGSGTKLEIK
notes: also called DIB-74 in the monovalent MoAb format; monovalent M-05-74
B4: M-15-04 (antibody, V domains shown)
VH: QVQLQQSGAELAKPGASVKMSCKTSGYTLTDYWIHWVKQRPGQGLEWIGYINPYTGYTESNQKFKDKATLTADKSSNTAYIQLSSLTSEDSAVYYCARPYYYGDYWGQGTTLTVSS
VL: QIVLTQSPAIMSASPGERVTITCSASSSVSYMHWFQQKPGTSPKLLIYSTSNLASGVPARFSGSGSGTSYSLTISRMEAEDAATYYCQQRSSYPFTFGSGTKLEIK
notes: murine hybridoma clone

Experiments:
HER3 ECD-HRG complex [1] = biological target: T1, HER3 ECD-HRG complex (human, UniProt P21860 20-643); test: SPR Biacore 3000, antibody captured via anti-human Fc, 25 C
T1 construct: HER3 ECD preincubated with a 3- to 6-fold molar excess of Heregulin ('open' conformation); biotinylated Her3-ECD in the ribosome display; also called HER3-ECD/HRG1β
Protocol: (§1) A CM5 series sensor was mounted into the system and was normalized in HBS-ET buffer (10 mM HEPES pH 7.4, 150 mM NaCl, 3 mM EDTA, 0.005% w/v Tween 20) according to the manufacturer's instructions. The sample buffer was the system buffer supplemented with 1 mg/ml CMD (Carboxymethyldextran, Sigma #86524). The system operated at 25° C. 10000 RU monoclonal murine anti-human Fc antibody (MAK<h-Fc> M-R10Z8 E9, Roche Diagnostics GmbH, Penzberg, Germany) were immobilized using EDC/NHS chemistry on all four flow cells. The sensor was deactivated using 1M ethanolamine.

HER3 ECD-HRG complex [2] = biological target: T1, HER3 ECD-HRG complex; test: SPR Biacore 3000, sequential injection: HER2-ECD first, then HER3-ECD/HRG1β, 270 nM each
Protocol: as §1
(§2) The association and dissociation rates were monitored for 10 minutes and 8 minutes, respectively.

HER3 ECD-HRG complex [3] = biological target: T1, HER3 ECD-HRG complex; test: SPR Biacore 3000, sequential injection: HER3-ECD/HRG1β first, then HER2-ECD, 270 nM each
Protocol: as §1, §2

[4] = biological target: T2, human HER3 Extracellular Domain (ECD) (human, UniProt P21860 20-643); test: ELISA, coated antigen
T2 construct: human recombinant, 68 kDa; 'closed' conformation without ligand; also called Her3 ECD; Her-3 ECD
Protocol: (§3) For the ELISA the screening an antigen down format was used. […] Hybridoma Supernatant was added to the plates and incubated for 1 h at room temperature. Bound antibody was detected with a HRP-labeled F(ab′)₂ goat anti-mouse Fcγ (Dianova) and ABTS (Roche) was used as a HRP-substrate.
(§4) As negative controls the scaffold proteins TtSlyDcas and TgSlyDΔIF were used.

[5] = biological target: T3, human HER4 Extracellular Domain (ECD) (human, UniProt Q15303 26-651); test: ELISA, coated antigen
T3 construct: also called Her4 ECD; HER4-ECD
T3 sequence: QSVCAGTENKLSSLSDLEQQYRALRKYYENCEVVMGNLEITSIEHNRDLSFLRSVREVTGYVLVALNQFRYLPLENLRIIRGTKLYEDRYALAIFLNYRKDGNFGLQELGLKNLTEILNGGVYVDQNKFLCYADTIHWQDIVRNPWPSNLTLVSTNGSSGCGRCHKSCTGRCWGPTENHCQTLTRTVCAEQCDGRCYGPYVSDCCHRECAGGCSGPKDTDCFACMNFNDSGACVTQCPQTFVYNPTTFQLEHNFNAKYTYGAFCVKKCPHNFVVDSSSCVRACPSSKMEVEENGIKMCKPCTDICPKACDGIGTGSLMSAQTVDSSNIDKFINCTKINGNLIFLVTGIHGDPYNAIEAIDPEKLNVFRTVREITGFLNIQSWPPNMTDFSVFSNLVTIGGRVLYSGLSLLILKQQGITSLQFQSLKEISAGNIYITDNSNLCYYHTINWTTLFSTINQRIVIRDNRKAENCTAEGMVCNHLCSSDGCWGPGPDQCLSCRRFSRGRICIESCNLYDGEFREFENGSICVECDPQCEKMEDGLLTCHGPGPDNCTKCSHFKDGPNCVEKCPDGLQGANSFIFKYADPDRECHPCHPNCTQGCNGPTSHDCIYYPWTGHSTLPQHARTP
Protocol: as §3, §4

[6] = biological target: T4, human HER1 Extracellular Domain (ECD) (human, UniProt P00533 25-645); test: ELISA, coated antigen
T4 construct: also called Her1 ECD; HER1-ECD
Protocol: as §3, §4

[7] = biological target: T5, human HER2 Extracellular Domain (ECD) (human, UniProt P04626 23-652); test: ELISA, coated antigen
T5 construct: human recombinant, 69.6 kDa; also called Her2 ECD; HER2_ECD
Protocol: as §3, §4

TtSlyDcas [8] = biological target: T6, TtSlyDcas; test: ELISA, coated antigen
T6 construct: scaffold without hairpin insert, negative control
T6 chain: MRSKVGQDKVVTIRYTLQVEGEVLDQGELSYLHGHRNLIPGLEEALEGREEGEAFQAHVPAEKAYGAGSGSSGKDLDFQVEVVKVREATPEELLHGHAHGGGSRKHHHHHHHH
Protocol: as §3, §4

TgSlyDΔIF [9] = biological target: T7, TgSlyDΔIF; test: ELISA, coated antigen
T7 construct: scaffold without hairpin insert, negative control
T7 chain: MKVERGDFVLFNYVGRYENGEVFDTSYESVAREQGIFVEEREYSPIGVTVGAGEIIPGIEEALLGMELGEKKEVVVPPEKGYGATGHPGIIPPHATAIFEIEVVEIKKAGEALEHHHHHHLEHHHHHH
Protocol: as §3, §4

TtSlyDcas-Her3 = biological target: T8, TtSlyDcas-Her3; test: ELISA, coated antigen
T8 chain: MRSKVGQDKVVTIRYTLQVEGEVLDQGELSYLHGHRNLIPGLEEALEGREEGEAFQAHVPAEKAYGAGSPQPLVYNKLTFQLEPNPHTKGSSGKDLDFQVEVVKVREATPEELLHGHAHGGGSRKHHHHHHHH
Protocol: as §3, §4

TtSlyDcys-Her3 = biological target: T9, TtSlyDcys-Her3; test: ELISA, coated antigen
T9 chain: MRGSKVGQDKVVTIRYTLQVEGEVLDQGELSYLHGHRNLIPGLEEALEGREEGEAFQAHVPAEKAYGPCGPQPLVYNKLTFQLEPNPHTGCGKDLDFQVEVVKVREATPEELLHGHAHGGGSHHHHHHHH
Protocol: as §3, §4

TgSlyDser-Her3 = biological target: T10, TgSlyDser-Her3; test: ELISA, coated antigen
T10 chain: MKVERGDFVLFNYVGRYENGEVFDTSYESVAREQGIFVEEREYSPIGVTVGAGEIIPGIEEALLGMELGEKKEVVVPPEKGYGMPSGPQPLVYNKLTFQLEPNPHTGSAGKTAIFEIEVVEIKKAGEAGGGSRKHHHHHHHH
Protocol: as §3, §4

TgSlyDcys-Her3 = biological target: T11, TgSlyDcys-Her3; test: ELISA, coated antigen
T11 chain: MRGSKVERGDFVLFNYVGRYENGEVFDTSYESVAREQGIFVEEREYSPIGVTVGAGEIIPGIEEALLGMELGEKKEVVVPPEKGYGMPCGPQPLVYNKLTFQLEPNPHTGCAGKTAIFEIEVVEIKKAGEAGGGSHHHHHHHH
Protocol: as §3, §4

[10] = biological target: T4, human HER1 Extracellular Domain (ECD); test: ELISA, coated antigen, hybridoma supernatant
Protocol: as §3

[11] = biological target: T5, human HER2 Extracellular Domain (ECD); test: ELISA, coated antigen, hybridoma supernatant
Protocol: as §3

TtSlyDcas [12] = biological target: T6, TtSlyDcas; test: ELISA, coated antigen 0.5 µg/ml, hybridoma supernatant
Protocol: as §3

TgSlyDΔIF [13] = biological target: T7, TgSlyDΔIF; test: as above
Protocol: as §3

[14] = biological target: T12, human HER1 (full length, on cells) (human, UniProt P00533 25-1210); test: IHC (Ventana Benchmark XT) on formalin-fixed, paraffin-embedded HEK293 cells transiently transfected with full length HER1
T12 construct: HEK293 cells transfected with full length HER1, fixed and embedded (IHC); also called EGFR
Protocol: (§5) All selected clones were tested for reactivity and specificity in IHC. […] After an additional fixation in formalin overnight the Agarose blocks were embedded in paraffin. Untransfected HEK293 cells were used as negative controls and treated accordingly to the transfected cells. After paraffin embedding 3 μm thin sections were prepared using a microtome. The sections were mounted on glass microscopy slides and dried for 2 h. All further steps of the immunohistochemical staining procedure were carried out using a Ventana Benchmark XT. The slides were dewaxed and antigen retrieval was performed by applying heat for 1 hour. For antigen retrieval the Ventana buffer CC1 was used. The antibodies were used at a concentration of 1 μg/ml. For the detection of bound antibody the Ventana UltraView detection kit was used.

[15] = biological target: T13, human HER2 (full length, on cells) (human, UniProt P04626 23-1255); test: IHC (Ventana Benchmark XT) on formalin-fixed, paraffin-embedded HEK293 cells transiently transfected with full length HER2
T13 construct: HEK293 cells transfected with full length HER2 (IHC); MCF-7 cells (co-immunoprecipitation)
Protocol: as §5

Row | Binder | Kd (HER3 ECD-HRG complex [1]) [nM] | MR (Molar Ratio) (HER3 ECD-HRG complex [1]) | koff (HER3 ECD-HRG complex [1]) [s⁻¹] | kon (HER3 ECD-HRG complex [1]) [M⁻¹ s⁻¹] | t1/2-diss (HER3 ECD-HRG complex [1]) [min] | ELISA signal [4] | ELISA signal [5] | ELISA signal [6] | ELISA signal [7] | ELISA signal (TtSlyDcas [8]) | ELISA signal (TgSlyDΔIF [9]) | ELISA signal (TtSlyDcas-Her3) | ELISA signal (TtSlyDcys-Her3) | ELISA signal (TgSlyDser-Her3) | ELISA signal (TgSlyDcys-Her3) | binding result [10] | binding result [11] | binding result (TtSlyDcas [12]) | binding result (TgSlyDΔIF [13]) | binding result [14] | also measured
1 | B1 | 3.9 | 0.5 | 0.00033 | 84000 | 35 | – | – | – | – | – | – | – | – | – | – | – | – | – | – | – | MR (molar ratio), second injection (HER3 ECD-HRG complex [2]): 0.7; MR (molar ratio), first injection (HER3 ECD-HRG complex [3]): 0.8
2 | B2 | – | – | – | – | – | 3.15 | 3.19 | 0.024 | 0.025 | 0.04 | 0.04 | 1.76 | 1.52 | 1.98 | 1.78 | no binding | no binding | no binding | no binding | no binding (tested: 1 µg/ml) | binding result [15]: no binding (tested: 1 µg/ml)
3 | B3 | 2.1 | 0.6 | 0.00023 | 110000 | 51 | – | – | – | – | – | – | – | – | – | – | – | – | – | – | – | –
4 | B4 | – | – | – | – | – | 3.17 | 3.19 | 0.067 | 0.064 | 0.04 | 0.033 | 1.85 | 1.46 | 1.83 | 1.5 | no binding | no binding | no binding | no binding | no binding (tested: 1 µg/ml) | binding result [15]: no binding (tested: 1 µg/ml)
